B1: Transcriptional coactivator yorkie (Drosophila melanogaster (Fruit fly)), Q45VV3 (parent)
chain: MLTTMSASSNTNSLIEKEIDDEDMLSPIKSNNLVVRVNQDTDDNLQALFDSVLNPGDAKRPLQLPLRMRKLPNSFFTPPAPSHSRANSADSTYDAGSQSSINIGNKASIVQQPDGQSPIAAIPQLQIQPSPQHSRLAIHHSRARSSPASLQQNYNVRARSDAAAANNPNANPSSQQQPAGPTFPENSAQEFPSGAPASSAIDLDAMNTCMSQDIPMSMQTVHKKQRSYDVISPIQLNRQLGALPPGWEQAKTNDGQIYYLNHTTKSTQWEDPRIQYRQQQQILMAERIKQNDVLQTTKQTTTSTIANNLGPLPDGWEQAVTESGDLYFINHIDRTTSWNDPRMQSGLSVLDCPDNLVSSLQIEDNLCSNLFNDAQAIVNPPSSHKPDDLEWYKIN
partner: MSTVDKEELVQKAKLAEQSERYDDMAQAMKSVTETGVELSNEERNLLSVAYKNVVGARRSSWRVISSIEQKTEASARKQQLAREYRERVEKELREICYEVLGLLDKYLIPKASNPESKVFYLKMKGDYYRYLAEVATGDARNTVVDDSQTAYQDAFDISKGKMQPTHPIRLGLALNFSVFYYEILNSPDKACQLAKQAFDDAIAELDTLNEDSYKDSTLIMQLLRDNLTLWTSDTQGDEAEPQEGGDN

Variants of: B1
Conditions: with 1433z_drome 14-3-3zeta

effect of a mutation on the interaction | Variant
decreasing interaction | MLTTMSASSNTNSLIEKEIDDEDMLSPIKSNNLVVRVNQDTDDNLQALFDSVLNPGDAKRPLQLPLRMRKLPNSFFTPPAPSHSRANSADSTYDAGSQSSINIGNKASIVQQPDGQSPIAAIPQLQIQPSPQHSRLAIHHSRARASPASLQQNYNVRARSDAAAANNPNANPSSQQQPAGPTFPENSAQEFPSGAPASSAIDLDAMNTCMSQDIPMSMQTVHKKQRSYDVISPIQLNRQLGALPPGWEQAKTNDGQIYYLNHTTKSTQWEDPRIQYRQQQQILMAERIKQNDVLQTTKQTTTSTIANNLGPLPDGWEQAVTESGDLYFINHIDRTTSWNDPRMQSGLSVLDCPDNLVSSLQIEDNLCSNLFNDAQAIVNPPSSHKPDDLEWYKIN [S145A]
